# Measurements from patent US20100317723, “Nucleolin Specific Aptamer and Use thereof” (POSTECH ACADEMY-INDUSTRY FOUDATION, published 2010).
# Assays:
# [1] = molecular target: T1, Nucleolin (cell-surface, C6 rat glioma cells) (UniProt P13383 P13383:1-713); experiment: C6 cell fluorescence, about 1.5 fold or more, 20 nM; confirmed by confocal; conditions: tags: endogenous on C6 cells (ATCC); label: 5'-Cy3; G4
# Description: (§1) To determine the targeting efficiency of the cancers, fluorescence intensities of forty-seven Cy3-labeled BzdU-containing GRO29A and eighteen Cy3-labeled NapdU-containing GRO29A compounds were quantified to evaluate their targeting efficiency at C6 cells by the Varioskan Flash spectral scanning multimode reader (Thermo Fisher Scientific Inc. Waltham, Mass.; excitation: 535 nm, scanning wavelength: 570 nm with a band width: 12 nm). C6 cells were seeded 1×10⁵ cell density onto Magne to FACTION 24 plate (Chemicell, GmbH, Germany) and caring at a 5% CO₂-humidified chamber. After 24 hours of grown, these seeded cells were incubated in DMEM (Dubelocos' modified essential media) with 20 nM of Cy3-labeled GRO29A or AS1411, or 20 nM of each of the Cy3-labeled modified dU-containing GRO29A or AS1411 compounds at for 30 minute at 4° C. for decreasing non-specific binding during 30 min and rinsed by PBS (1×), then replaced to 200 μl Tris buffer, and then treated with each of 47 different compounds (20 pmole). […] These cells were collected by PBS (1×) (120 μl) and transferred into 96-well plate (Chemicell, GmbH, Germany) for measurement of fluorescence intensity (100 μl). […]
# [2] = molecular target: T1, Nucleolin (cell-surface, C6 rat glioma …); experiment: C6 cell fluorescence, about 1.5 fold or more, 20 nM; conditions: tags: endogenous on C6 cells (ATCC); label: 5'-Cy3; G4
# Description: To determine the targeting efficiency of the cancers, fluorescence intensities of forty-seven Cy3-labeled BzdU-containing GRO29A and eighteen Cy3-labeled NapdU-containing GRO29A compounds were quantified to evaluate their targeting efficiency at C6 cells by the Varioskan Flash spectral scanning multimode reader (Thermo Fisher Scientific Inc. Waltham, Mass.; excitation: 535 nm, scanning wavelength: 570 nm with a band width: 12 nm). C6 cells were seeded 1×10⁵ cell density onto Magne to FACTION 24 plate (Chemicell, GmbH, Germany) and caring at a 5% CO₂-humidified chamber. After 24 hours of grown, these seeded cells were incubated in DMEM (Dubelocos' modified essential media) with 20 nM of Cy3-labeled GRO29A or AS1411, or 20 nM of each of the Cy3-labeled modified dU-containing GRO29A or AS1411 compounds at for 30 minute at 4° C. for decreasing non-specific binding during 30 min and rinsed by PBS (1×), then replaced to 200 μl Tris buffer, and then treated with each of 47 different compounds (20 pmole). Then, seeded cells was washed with PBS (phosphate buffered saline) two times each for 10 min at RT using shaking incubation (30 rpm) to remove the unbound Cy3-labeled modified dU-containing GRO29A or AS1411 compounds, and subjected to trypsinization to detach from the plate surface. These cells were collected by PBS (1×) (120 μl) and transferred into 96-well plate (Chemicell, GmbH, Germany) for measurement of fluorescence intensity (100 μl).
# [3] = molecular target: T2, Nucleolin (cell-surface, human cancer cell lines) (UniProt P19338 P19338:2-710); experiment: HeLa cell fluorescence; reference; conditions: tags: endogenous on HeLa, MDA-MB231, HepG2, AGS, OVCAR-3, U87MG cells (ATCC); label: 5'-Cy3; G4
# Description: (§2) To determine the targeting efficiency of the cancers, fluorescence intensities of forty-seven Cy3-labeled BzdU-containing GRO29A and eighteen Cy3-labeled NapdU-containing GRO29A compounds were quantified to evaluate their targeting efficiency at C6 cells by the Varioskan Flash spectral scanning multimode reader (Thermo Fisher Scientific Inc. Waltham, Mass.; excitation: 535 nm, scanning wavelength: 570 nm with a band width: 12 nm). C6 cells were seeded 1×10⁵ cell density onto Magne to FACTION 24 plate (Chemicell, GmbH, Germany) and caring at a 5% CO₂-humidified chamber. […] These cells were collected by PBS (1×) (120 μl) and transferred into 96-well plate (Chemicell, GmbH, Germany) for measurement of fluorescence intensity (100 μl).
# (§3) To test functional activity of BzdU-containing GRO29A, the compounds numbers 1642-39, 1642-51 and 1642-19, in other cancer cells, the inventors first extended cancer targeting assay by selecting another cancer cells, HeLa (human cervix cancer cell line, ATCC), and a normal healthy cell line, CHO (chinese hamster ovary cell line, ATCC). The measurement of fluorescence intensity was performed as described above for C6 cells.
# [4] = molecular target: T1, Nucleolin (cell-surface, C6 rat glioma …); experiment: cell fluorescence and confocal on C6 cells, 20 nM, 4 C; reference; conditions: tags: endogenous on C6 cells (ATCC); label: 5'-Cy3; G4
# Description: as §1
# [5] = molecular target: T1, Nucleolin (cell-surface, C6 rat glioma …); experiment: C6 cell fluorescence, 20 nM; confirmed by confocal; conditions: tags: endogenous on C6 cells (ATCC); label: 5'-Cy3; G4
# Description: as §1
# [6] = molecular target: T2, Nucleolin (cell-surface, human cancer …); experiment: HeLa cell fluorescence; conditions: tags: endogenous on HeLa, MDA-MB231, HepG2, AGS, OVCAR-3, U87MG cells (ATCC); label: 5'-Cy3; G4
# Description: as §2, §3
# T1 sequence (P13383 whole entry, one chain of several): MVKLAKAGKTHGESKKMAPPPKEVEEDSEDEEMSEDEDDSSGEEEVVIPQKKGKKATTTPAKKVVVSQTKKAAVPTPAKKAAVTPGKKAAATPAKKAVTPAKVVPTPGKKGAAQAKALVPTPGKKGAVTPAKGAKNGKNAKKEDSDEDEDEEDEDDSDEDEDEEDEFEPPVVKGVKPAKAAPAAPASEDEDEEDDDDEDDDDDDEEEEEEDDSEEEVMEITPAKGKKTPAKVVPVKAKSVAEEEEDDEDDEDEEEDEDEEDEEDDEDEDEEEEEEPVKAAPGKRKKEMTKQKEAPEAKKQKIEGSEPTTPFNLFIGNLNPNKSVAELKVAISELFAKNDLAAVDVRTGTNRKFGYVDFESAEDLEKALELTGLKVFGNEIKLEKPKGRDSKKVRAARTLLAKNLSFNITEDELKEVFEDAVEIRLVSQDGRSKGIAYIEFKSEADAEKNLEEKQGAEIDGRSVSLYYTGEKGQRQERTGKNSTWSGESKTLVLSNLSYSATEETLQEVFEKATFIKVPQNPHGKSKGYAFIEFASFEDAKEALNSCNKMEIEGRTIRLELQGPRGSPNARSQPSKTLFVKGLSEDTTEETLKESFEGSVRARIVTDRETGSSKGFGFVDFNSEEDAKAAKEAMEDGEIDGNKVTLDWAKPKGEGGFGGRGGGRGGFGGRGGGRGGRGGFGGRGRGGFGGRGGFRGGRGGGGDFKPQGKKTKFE
# T2 sequence (P19338 2-710, one chain of several): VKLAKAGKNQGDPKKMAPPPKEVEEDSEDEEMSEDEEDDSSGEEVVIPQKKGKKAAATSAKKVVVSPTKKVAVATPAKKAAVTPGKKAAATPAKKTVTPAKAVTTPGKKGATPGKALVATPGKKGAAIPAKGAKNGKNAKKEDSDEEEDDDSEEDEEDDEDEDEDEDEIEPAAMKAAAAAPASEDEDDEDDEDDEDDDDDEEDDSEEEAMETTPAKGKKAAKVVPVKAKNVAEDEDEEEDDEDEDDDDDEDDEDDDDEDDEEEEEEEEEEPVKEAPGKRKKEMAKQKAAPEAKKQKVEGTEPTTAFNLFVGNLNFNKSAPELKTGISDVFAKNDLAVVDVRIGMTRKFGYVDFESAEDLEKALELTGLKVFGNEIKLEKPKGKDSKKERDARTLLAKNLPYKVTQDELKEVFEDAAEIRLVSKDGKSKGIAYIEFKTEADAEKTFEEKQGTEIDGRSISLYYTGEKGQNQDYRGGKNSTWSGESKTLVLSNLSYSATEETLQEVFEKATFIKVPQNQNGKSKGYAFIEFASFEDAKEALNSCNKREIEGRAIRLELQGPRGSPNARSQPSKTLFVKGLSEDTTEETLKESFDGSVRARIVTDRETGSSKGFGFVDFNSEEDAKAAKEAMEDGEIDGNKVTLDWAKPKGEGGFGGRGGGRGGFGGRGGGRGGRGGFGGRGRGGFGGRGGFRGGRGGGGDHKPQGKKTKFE
binder,measurement,setting,value
"TTTGGTGGTGGTGGTTGTGGTGGTGGTGG (ssDNA, BzdU at T1, T3, T15, T16) [1642-51]",binding signal,[1],≥ 1.5 fold vs GRO29A
"TTTGGTGGTGGTGGTTGTGGTGGTGGTGG (ssDNA, BzdU at T2, T3, T15, T16) [1642-49]",binding signal,[2],≥ 1.5 fold vs GRO29A
TTTGGTGGTGGTGGTTGTGGTGGTGGTGG (ssDNA) [GRO29A (Cy3-1641-3)],binding signal,[3],1 fold
same,binding signal,[4],1 fold
"TTTGGTGGTGGTGGTTGTGGTGGTGGTGG (ssDNA, BzdU at T6) [1642-11]",binding signal,[2],≥ 1.5 fold vs GRO29A
"TTTGGTGGTGGTGGTTGTGGTGGTGGTGG (ssDNA, BzdU at T27) [1642-19]",binding signal,[5],~2.5 fold vs GRO29A
same,binding signal,[6],~2.3 fold vs GRO29A
"TTTGGTGGTGGTGGTTGTGGTGGTGGTGG (ssDNA, BzdU at T15, T16) [1642-39]",binding signal,[1],≥ 1.5 fold vs GRO29A
"TTTGGTGGTGGTGGTTGTGGTGGTGGTGG (ssDNA, BzdU at T12) [1642-13]",binding signal,[2],≥ 1.5 fold vs GRO29A
"TTTGGTGGTGGTGGTTGTGGTGGTGGTGG (ssDNA, BzdU at T9, T27) [1642-30]",binding signal,[2],≥ 1.5 fold vs GRO29A
